From patent US20120214741

T1: VDAC of isolated rat mitochondria (liver, brain), Q9Z2L0
T1 chain: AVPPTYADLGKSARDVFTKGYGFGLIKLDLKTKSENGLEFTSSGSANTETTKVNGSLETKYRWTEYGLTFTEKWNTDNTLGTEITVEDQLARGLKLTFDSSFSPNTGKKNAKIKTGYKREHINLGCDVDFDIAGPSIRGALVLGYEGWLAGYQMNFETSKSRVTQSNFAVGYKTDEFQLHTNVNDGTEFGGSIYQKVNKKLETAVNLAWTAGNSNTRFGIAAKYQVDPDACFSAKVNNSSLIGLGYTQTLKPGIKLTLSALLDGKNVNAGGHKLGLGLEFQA

T2: native mVDAC1 (mouse VDAC1), purified recombinant
T2 chain: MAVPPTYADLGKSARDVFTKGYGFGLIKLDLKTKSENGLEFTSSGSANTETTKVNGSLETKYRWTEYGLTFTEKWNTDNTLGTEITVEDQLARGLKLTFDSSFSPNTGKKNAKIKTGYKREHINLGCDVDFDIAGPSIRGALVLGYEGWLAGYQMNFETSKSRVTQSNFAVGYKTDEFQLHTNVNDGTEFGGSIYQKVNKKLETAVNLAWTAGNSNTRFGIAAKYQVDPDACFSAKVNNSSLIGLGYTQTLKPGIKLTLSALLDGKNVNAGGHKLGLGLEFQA


How the values were obtained:
[1] = biological target: T1, VDAC of isolated rat mitochondria …
[2] = biological target: T2, native mVDAC1 (mouse VDAC1), purified …
[3] = biological target: E72Q-mVDAC1, purified recombinant

Protein	PTP opening (Ca2+ accumulation and swelling of energized mitochondria) [1]	release of cytochrome c from mitochondria (Western blot) [1]	VDAC1 channel closure in a planar lipid bilayer (currents before and 5 min after HK-I, 28.6 mU/ml) [2]	VDAC1 channel closure in a planar lipid bilayer (currents before and 5 min after HK-I, 28.6 mU/ml) [3]	PTP opening (swelling of energized mitochondria) [1]
Rat brain HK-I (hexokinase-I), purified (protein) MIAAQLLAYYFTELKDDQVKKIDKYLYAMRLSDEILIDILTRFKKEMKNGLSRDYNPTASVKMLPTFVRSIPDGSEKGDFIALDLGGSSFRILRVQVNHEKNQNVSMESEIYDTPENIVHGSGTQLFDHVADCLGDFMEKKKIKDKKLPVGFTFSFPCRQSKIDEAVLITWTKRFKASGVEGADVVKLLNKAIKKRGDYDANIVAVVNDTVGTMMTCGYDDQQCEVGLIIGTGTNACYMEELRHIDLVEGDEGRMCINTEWGAFGDDGSLEDIRTEFDRELDRGSLNPGKQLFEKMVSGMYMGELVRLILVKMAKEGLLFEGRITPELLTRGKFNTSDVSAIEKDKEGIQNAKEILTRLGVEPSDVDCVSVQHICTIVSFRSANLVAATLGAILNRLRDNKGTPRLRTTVGVDGSLYKMHPQYSRRFHKTLRRLVPDSDVRFLLSESGTGKGAAMVTAVAYRLAEQHRQIEETLAHFRLSKQTLMEVKKRLRTEMEMGLRKETNSKATVKMLPSFVRSIPDGTEHGDFLALDLGGTNFRVLLVKIRSGKKRTVEMHNKIYSIPLEIMQGTGDELFDHIVSCISDFLDYMGIKGPRMPLGFTFSFPCHQTNLDCGILISWTKGFKATDCEGHDVASLLRDAVKRREEFDLDVVAVVNDTVGTMMTCAYEEPTCEIGLIVGTGTNACYMEEMKNVEMVEGNQGQMCINMEWGAFGDNGCLDDIRTDFDKVVDEYSLNSGKQRFEKMISGMYLGEIVRNILIDFTKKGFLFRGQISEPLKTRGIFETKFLSQIESDRLALLQVRAILQQLGLNSTCDDSILVKTVCGVVSKRAAQLCGAGMAAVVEKIRENRGLDHLNVTVGVDGTLYKLHPHFSRIMHQTVKELSPKCTVSFLLSEDGSGKGAALITAVGVRLRGDPSIA	HK-I inhibited PTP opening	HK-I prevented the release of cytochrome c from mitochondria	HK-I is able to close native VDAC1	HK-I is able to close native VDAC1 but not mutated E72Q-VDAC1 (SEQ ID NO:43)	–
trypsin-treated HK-I (protein) MIAAQLLAYYFTELKDDQVKKIDKYLYAMRLSDEILIDILTRFKKEMKNGLSRDYNPTASVKMLPTFVRSIPDGSEKGDFIALDLGGSSFRILRVQVNHEKNQNVSMESEIYDTPENIVHGSGTQLFDHVADCLGDFMEKKKIKDKKLPVGFTFSFPCRQSKIDEAVLITWTKRFKASGVEGADVVKLLNKAIKKRGDYDANIVAVVNDTVGTMMTCGYDDQQCEVGLIIGTGTNACYMEELRHIDLVEGDEGRMCINTEWGAFGDDGSLEDIRTEFDRELDRGSLNPGKQLFEKMVSGMYMGELVRLILVKMAKEGLLFEGRITPELLTRGKFNTSDVSAIEKDKEGIQNAKEILTRLGVEPSDVDCVSVQHICTIVSFRSANLVAATLGAILNRLRDNKGTPRLRTTVGVDGSLYKMHPQYSRRFHKTLRRLVPDSDVRFLLSESGTGKGAAMVTAVAYRLAEQHRQIEETLAHFRLSKQTLMEVKKRLRTEMEMGLRKETNSKATVKMLPSFVRSIPDGTEHGDFLALDLGGTNFRVLLVKIRSGKKRTVEMHNKIYSIPLEIMQGTGDELFDHIVSCISDFLDYMGIKGPRMPLGFTFSFPCHQTNLDCGILISWTKGFKATDCEGHDVASLLRDAVKRREEFDLDVVAVVNDTVGTMMTCAYEEPTCEIGLIVGTGTNACYMEEMKNVEMVEGNQGQMCINMEWGAFGDNGCLDDIRTDFDKVVDEYSLNSGKQRFEKMISGMYLGEIVRNILIDFTKKGFLFRGQISEPLKTRGIFETKFLSQIESDRLALLQVRAILQQLGLNSTCDDSILVKTVCGVVSKRAAQLCGAGMAAVVEKIRENRGLDHLNVTVGVDGTLYKLHPHFSRIMHQTVKELSPKCTVSFLLSEDGSGKGAALITAVGVRLRGDPSIA	–	–	–	–	The failure of non-binding species of HK, such as yeast HK, or trypsin- or chymotrypsin-treated HK-I (FIG. 2D) to prevent PTP opening
chymotrypsin-treated HK-I (protein) FTELKDDQVKKIDKYLYAMRLSDEILIDILTRFKKEMKNGLSRDYNPTASVKMLPTFVRSIPDGSEKGDFIALDLGGSSFRILRVQVNHEKNQNVSMESEIYDTPENIVHGSGTQLFDHVADCLGDFMEKKKIKDKKLPVGFTFSFPCRQSKIDEAVLITWTKRFKASGVEGADVVKLLNKAIKKRGDYDANIVAVVNDTVGTMMTCGYDDQQCEVGLIIGTGTNACYMEELRHIDLVEGDEGRMCINTEWGAFGDDGSLEDIRTEFDRELDRGSLNPGKQLFEKMVSGMYMGELVRLILVKMAKEGLLFEGRITPELLTRGKFNTSDVSAIEKDKEGIQNAKEILTRLGVEPSDVDCVSVQHICTIVSFRSANLVAATLGAILNRLRDNKGTPRLRTTVGVDGSLYKMHPQYSRRFHKTLRRLVPDSDVRFLLSESGTGKGAAMVTAVAYRLAEQHRQIEETLAHFRLSKQTLMEVKKRLRTEMEMGLRKETNSKATVKMLPSFVRSIPDGTEHGDFLALDLGGTNFRVLLVKIRSGKKRTVEMHNKIYSIPLEIMQGTGDELFDHIVSCISDFLDYMGIKGPRMPLGFTFSFPCHQTNLDCGILISWTKGFKATDCEGHDVASLLRDAVKRREEFDLDVVAVVNDTVGTMMTCAYEEPTCEIGLIVGTGTNACYMEEMKNVEMVEGNQGQMCINMEWGAFGDNGCLDDIRTDFDKVVDEYSLNSGKQRFEKMISGMYLGEIVRNILIDFTKKGFLFRGQISEPLKTRGIFETKFLSQIESDRLALLQVRAILQQLGLNSTCDDSILVKTVCGVVSKRAAQLCGAGMAAVVEKIRENRGLDHLNVTVGVDGTLYKLHPHFSRIMHQTVKELSPKCTVSFLLSEDGSGKGAALITAVGVRLRGDPSIA	–	–	–	–	The failure of non-binding species of HK, such as yeast HK, or trypsin- or chymotrypsin-treated HK-I (FIG. 2D) to prevent PTP opening
